Reference: patent US20250325718A1, “IMMUNOCONJUGATES COMPRISING KALLIKREIN RELATED PEPTIDASE 2 ANTIGEN BINDING DOMAINS AND THEIR USES” (Janssen Biotech, Inc., priority 2021, published 2025)

Test: DTPA challenge of Ac-225 labeled TOPA-[C7]-phenylthiourea-h11B6 (iTLC)
Assay type: physicochemical
Settings: for DTPA challenge: chelated Ac-225 (iTLC): labeling reaction mixture, 10 mM DTPA pH 6.5, 37° C., 30 min
Protocol: 0.5 μL of the labeling reaction mixture was also mixed with 10 mM DTPA (pH=6.5, 15 μL) at 37° C. After 30 min, 10 μL of the mixture was spotted on iTLC-SG and developed by 10 mM EDTA. The dried iTLC-SG was left at room temperature for overnight before it was scanned on a Bioscan AR-2000 radio-TLC scanner. Under the elution conditions described herein, TOPA-[C7]-phenylthiourea-h11B6 chelated Ac-225 ^st ayed at the origin and any free Ac-225 would migrate with the solvent to the solvent front.
10 μL of fraction #3 collected after PD-10 column was mixed with 15 μL of 10 mM DTPA solution (pH 6.5), and incubated for 30 min. 10 μL of the mixture was loaded onto an iTLC-SG, which was developed with 10 mM EDTA and dried overnight. It was scanned on a Bioscan AR-2000 radio-TLC scanner.

[1] = 25 mM NaOAc, 0.04% PS-20, pH 5.5 (conjugate 10.4 mg/mL)
[2] = 1.0M NaOAc, 0.04% PS-20 (conjugate 9.36 mg/mL)
[3] = 1.5M NaOAc, 0.04% PS-20 (conjugate 9.36 mg/mL)
[4] = 3M NaOAc buffer (conjugate […])

Substance	DTPA challenge of the purified conjugate: free Ac-225 (iTLC) (fraction #3 after PD-10 column, 10 mM DTPA pH 6.5, 30 min)	DTPA challenge: chelated Ac-225 (iTLC) [1] [%]	DTPA challenge: chelated Ac-225 (iTLC) [2] [%]	DTPA challenge: chelated Ac-225 (iTLC) [3] [%]	DTPA challenge: chelated Ac-225 (iTLC) [4] [%]
Ac-225 labeled TOPA-[C7]-phenylthiourea-h11B6 antibody conjugate [Example 21]	no free Ac-225	99.8	99.9	99.9	99.7
TOPA-[C7]-phenylthiourea-h11B6 Antibody Conjugate [Example 20]	–	>99	>99	>99	>99
